In PMC5830916:

Experiments:
[1] = target: 14-3-3 ζ (UniProt P63104); test: GFP-Trap co-IP, Myc immunoblot; conditions: reference: wild type
[2] = target: 14-3-3 ε (UniProt P62258); test: GFP-Trap co-IP, Myc immunoblot; conditions: reference: wild type

Row | binding against the reference ([1]; sites S411) | binding against the reference ([2]; sites S411) | binding against the reference ([1]; sites S395) | binding against the reference ([2]; sites S395) | Substance
1 | lost | lost | – | – | E2F7 (from UniProt Q6S7F2) S411A
2 | – | – | lost | lost | E2F8 (from UniProt Q58FA4) S395A
